US20200148765A1 (OSAKA UNIVERSITY, published 2020)

T1: wild-type human CLDN-5 protein (human, UniProt O00501 1-218)
T1 construct: Four-transmembrane tight junction protein expressed by retrovirus on HT-1080 (or MDCKII) cells; also called hCLDN-5; human Claudin-5 protein
T1 sequence: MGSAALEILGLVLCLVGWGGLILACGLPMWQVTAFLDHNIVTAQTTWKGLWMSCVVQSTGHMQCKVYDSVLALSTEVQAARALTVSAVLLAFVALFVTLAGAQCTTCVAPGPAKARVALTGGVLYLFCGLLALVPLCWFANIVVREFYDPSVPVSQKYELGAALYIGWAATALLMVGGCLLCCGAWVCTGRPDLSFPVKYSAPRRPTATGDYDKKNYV

T2: mouse CLDN-5 protein (mouse, UniProt O54942 1-218)
T2 construct: Expressed on cells by retrovirus; also called mCLDN-5; MDCKII/mCLDN-5
T2 sequence: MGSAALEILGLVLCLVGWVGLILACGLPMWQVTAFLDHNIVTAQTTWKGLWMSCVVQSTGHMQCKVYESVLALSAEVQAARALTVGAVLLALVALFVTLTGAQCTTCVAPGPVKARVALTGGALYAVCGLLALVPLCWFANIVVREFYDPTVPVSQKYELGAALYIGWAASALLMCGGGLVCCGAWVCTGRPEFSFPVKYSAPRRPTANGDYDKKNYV

T3: mCLDN-1 protein (mouse, UniProt O88551 1-211)
T3 construct: Expressed on cells by retrovirus; also called mouse Claudin-1 protein
T3 sequence: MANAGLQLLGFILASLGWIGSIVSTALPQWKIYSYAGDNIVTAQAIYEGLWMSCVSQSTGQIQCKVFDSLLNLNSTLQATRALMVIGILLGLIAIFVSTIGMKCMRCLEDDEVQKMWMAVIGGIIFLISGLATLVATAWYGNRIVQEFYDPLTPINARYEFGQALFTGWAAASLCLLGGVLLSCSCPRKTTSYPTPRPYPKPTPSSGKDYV

T4: mCLDN-3 protein (mouse, UniProt Q9Z0G9 1-219)
T4 construct: Expressed on cells by retrovirus; also called mouse Claudin-3 protein
T4 sequence: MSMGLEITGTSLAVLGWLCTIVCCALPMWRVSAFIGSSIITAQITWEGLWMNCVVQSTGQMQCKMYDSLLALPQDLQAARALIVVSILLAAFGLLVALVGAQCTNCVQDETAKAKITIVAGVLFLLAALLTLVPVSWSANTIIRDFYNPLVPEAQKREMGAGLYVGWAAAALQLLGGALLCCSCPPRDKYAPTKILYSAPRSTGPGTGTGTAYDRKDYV

T5: mCLDN-2 protein (mouse, UniProt O88552 1-230)
T5 construct: Expressed on cells by retrovirus; also called mouse Claudin-2 protein
T5 sequence: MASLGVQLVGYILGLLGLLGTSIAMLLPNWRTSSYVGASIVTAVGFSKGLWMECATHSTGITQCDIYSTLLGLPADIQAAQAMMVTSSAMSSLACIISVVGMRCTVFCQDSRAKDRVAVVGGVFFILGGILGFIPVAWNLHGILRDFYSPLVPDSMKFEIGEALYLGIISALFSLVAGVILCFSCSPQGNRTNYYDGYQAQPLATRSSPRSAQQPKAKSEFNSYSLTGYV

T6: crab-eating macaque CLDN-5 protein (crab-eating macaque, UniProt O00501 1-218 (human entry))
T6 construct: Expressed on cells by retrovirus; also called cCLDN-5; MDCKII/cCLDN-5
T6 chain: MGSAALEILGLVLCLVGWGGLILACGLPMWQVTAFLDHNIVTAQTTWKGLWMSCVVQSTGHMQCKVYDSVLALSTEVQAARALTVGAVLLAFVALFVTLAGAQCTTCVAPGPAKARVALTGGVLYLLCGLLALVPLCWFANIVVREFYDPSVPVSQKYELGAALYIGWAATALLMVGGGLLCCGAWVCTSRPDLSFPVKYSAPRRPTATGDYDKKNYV


What was measured:
[1] = target: T1, wild-type human CLDN-5 protein; assay: FACS saturation binding on HT-1080/hCLDN-5, one-site fit; Lot 1
Method: (§1) The obtained CLDN-expressing cells were seeded in a 10 cm dish, and on the next day, the cells were collected. The primary antibodies (100 μL) were added to the obtained 1.0×10⁵ cells and allowed to react for 1 hour at 4° C. At this time, a mixed solution of a C-CPE mutant (C-CPEmt) and a mouse anti-His tag antibody (Abeam) used in Non-Patent Literature 3 was used as positive control. The cells were washed three times with 0.2% BSA-PBS, then mixed with 100 μL of a secondary antibody solution (FITC conjugated goat anti-mouse IgG or anti-rat IgG (Jackson Immune Research, 115-095-003 or 112-095-003) 400x diluted with 1% BSA-PBS, and allowed to react for 1 hour at 4° C. The cells were washed with 0.2% BSA-TBS and then analyzed using FACS caliber (BD Bioscience).
(§2) By using HT-1080/hCLDN-5 and 100 μL of the anti-CLDN-5 antibody at each concentration diluted with 1.0% BSA-PBS, FACS assay was performed in the same manner as in Example 3-1). […] At this time, the equation of saturation binding-one site-specific binding of Graph Pad prism 7 (Graph Pad Software) was used.

[2] = target: T1, wild-type human CLDN-5 protein; assay: FACS saturation binding on HT-1080/hCLDN-5, one-site fit; Lot 2
Method: as §1, §2

mouse CLDN-5 protein = target: T2, mouse CLDN-5 protein; assay: FACS, hybridoma supernatant on CLDN-expressing cells
Excerpt: (§3) By the insertion of a DNA fragment consisting of an hCLDN-1 protein (SEQ ID NO: 30)-encoding sequence, an hCLDN-2 protein (SEQ ID NO: 31)-encoding sequence, an hCLDN-3 protein (SEQ ID NO 32)-encoding sequence, an hCLDN-4 protein (SEQ ID NO: 33)-encoding sequence, an hCLDN-6 protein (SEQ ID NO: 34)-encoding sequence, an hCLDN-7 protein (SEQ ID NO: 35)-encoding sequence, an mCLDN-1 protein (SEQ ID NO: 37)-encoding sequence, an mCLDN-2 protein (SEQ ID NO: 38)-encoding sequence, an mCLDN-3 protein (SEQ ID NO: 39)—encoding sequence, or an mCLDN-5 protein (SEQ ID NO: 29)-encoding sequence, vectors for preparing a retrovirus were obtained. By using these vectors and the vector for preparing a retrovirus prepared in Example 1-2), various CLDN protein-expressing cells were prepared. By using these cells and a culture supernatant of hybridomas producing antibodies as primary antibodies, FACS assay was performed by the following method.
as §1

mCLDN-1 protein = target: T3, mCLDN-1 protein; assay: as above
Excerpt: as §3, §1

mCLDN-3 protein = target: T4, mCLDN-3 protein; assay: as above
Excerpt: as §3, §1

mCLDN-2 protein = target: T5, mCLDN-2 protein; assay: as above
Excerpt: as §3, §1

[3] = target: T6, crab-eating macaque CLDN-5 protein; assay: FACS on CLDN-5-expressing cells, antibody 5 µg/mL
Method: as §1
In the same manner as in Example 1-2), a DNA fragment consisting of a cCLDN-5 protein (SEQ ID NO: 28)-encoding sequence or an mCLDN-5 protein (SEQ ID NO: 29)-encoding sequence was inserted into a pCX4pur vector, thereby obtaining vectors for preparing a retrovirus. By using these vectors with the vector for preparing a retrovirus prepared in Example 1-2), various animal species CLDN-5 protein-expressing cells were prepared. By using these cells and the antibodies (antibody concentration: 5 μg/mL, as primary antibody), FACS assay was performed in the same manner as in 3-1).

Kd [1] [nM]	Kd [2] [nM]	binding result (mouse CLDN-5 protein)	binding result (mCLDN-1 protein)	binding result (mCLDN-3 protein)	binding result (mCLDN-2 protein)	binding result [3]	Binder
20.1	20.7	no binding	no binding	no binding	no binding	–	rat anti-CLDN-5 antibody R2 (antibody, rat IgG2a, V domains shown, Hybridoma monoclonal; also called antibody F) VH: QVQLKESGPGLVQPSQTLSLTCTVSGLSLIRNSVSWIRQPPGKGLEWMGVIWSNGGTEYNSTVKSRLSISRDTSKNQVFLKMNSLQTEDSAMFFCARTPDGYYPYFDYWGQGVMVTVSS VL: DIVLTQSPATLSVTPGESVSLSCRASQGISTSIHWYQQKSNESPRLLIRYASQSISRIPSRFSGSGSGTDFTLTINGVESEDLSVYYCQQSYNLPLTFGSGTKLEI
29.1	8.47	–	no binding	no binding	no binding	–	mouse anti-CLDN-5 antibody M48 (antibody, mouse IgG3, V domains shown, Hybridoma monoclonal; also called antibody E) VH: QAYLQQSGAELVRPGASVKMSCKASGYTFTSYNMHWVKKTRRQGLEWIGAISPGNGNTSYNQKFKGKATLTVDKSSSTAYMQLSSLTSEDSAVYFCARDDGYYGALDYWGQGTSVTVSS VL: DIVLTQSPATLSVTPGESVSLSCRASQGISTSIHWYQQKSNESPRLLIRYASQSISRIPSRFSGSGSGTDFTLTINGVESEDLSVYYCQQSYNLPLTFGSGTKLEI
8.72	9.68	no binding	no binding	no binding	no binding	binds	mouse anti-CLDN-5 antibody M11 (antibody, mouse IgG2b, V domains shown, Hybridoma monoclonal; also called antibody B) VH: QVQLKQSGPGLVQPSQSLSITCTVSGFSLIRYGVHWVRQSPGKGLEWLGVKWSGGSTDYNGAFKSRLSISKDNSKSQVFFKMNSLQADDTAIYYCARGLDGYYVPDVWGTGTSVTVS VL: DIVMTQSHKFMSTSVGDRVSITCKASQDVSTNVAWYQQKPGQSPTLLIYWASTRHTGVPDRFTGSGSGTDYTLTISSVQAEDLALYYCQQHYSTPLTFGAGTKLELRR
7.19	2.44	no binding	no binding	no binding	no binding	binds	rat anti-CLDN-5 antibody R3 (antibody, rat IgG2a, V domains shown, Hybridoma monoclonal; also called antibody G) VH: EVQLVESGGGLVQPGRSLKLSCAASGFTFSDYYMAWVRQAPKKGLEWVASISYEGRNTYYGDSVKGRFTISRDNAKSTLYLQMKSLRSEDTATYYCTRHPRRYFDYWGQGVMVTVSS VL: DIVMTQSPSSLAVSAGETVTMNCRSSQSLFSSGDQKKFLAWYQQKPGQSPKLLISLASTRESGVPDRFIGSGSGTDFTLTINNMQAEDLAIYYCQQHYDIPYTFGAGTKLEL
3.89	6.41	no binding	–	no binding	no binding	binds	mouse anti-CLDN-5 antibody M3 (antibody, mouse IgG2b, V domains shown, Hybridoma monoclonal; also called antibody A) VH: EVQLQQSGPELVKPGASVKISCKASGYSFTGYYMNWVKQSPEKSLEWIGDINPSTGGATYNQKFKAKATLTVDKSSSTAYMQLKSLTSEDSAVFYCALYSNYGFVYWGQGTLVTVSA VL: not shown
3.78	2.75	–	no binding	no binding	no binding	binds	rat anti-CLDN-5 antibody R9 (antibody, rat IgG2b, V domains shown, Hybridoma monoclonal; also called antibody I) VH: QVTLKESGPGILQPSHTLSLTCSFSGFSLNTYGVGVNWIRQPSGKGLEWLASIWWHGKTYINPSLKNRLTVSKDPSNNQAFLEVTNVDPADTATYYCAHARAQLLDYWGQGVMVTVSS VL: DIVMTQTPSSQAVSAGEKVTMSCKSSQSLLYSGDQKNYLAWYQQKPGQSPKLLIYLTSTRESGVPDRFIGSGSGTDFTLTISSVQAEDLADYYCQQHYSYPLTFGSGTKLEI
4.66	8.42	no binding	no binding	no binding	no binding	binds	rat anti-CLDN-5 antibody R14 (antibody, rat IgG2a, V domains shown, Hybridoma monoclonal; also called antibody K) VH: QVTLKESGPGILQPSHTLSLTCSFSGFSLSTYGMGVSWIRQPSGKGLEWLASIWWNGRTYTNPSLMSRLTVSKDTSTNQAFLRVTSVETADTATYYCAHTPYDYSNLGWFTYWGQGTLVTVSS VL: DILMTQTPSSQAVSAGEKVTVSCKSSQSLLYSGDQKSYLAWYQQKPGQSPKLLIYLASTRKSGVPDRFIGSGSGTDFTLTISSVQAEDLADYYCQQHYTYPLTFGSGTKLEI
3.77	2.78	no binding	no binding	no binding	no binding	binds	mouse anti-CLDN-5 antibody M23 (antibody, mouse IgG2b, V domains shown, Hybridoma monoclonal; also called antibody C) VH: EVQLQQSGPVLVKPGPSVMISCKASGFTFTDYYMHWVKQSHGKSLEWIGLVYPYNGGTDYNQKFKGKATLTVDTSSSTAYMELNSLTSEDSAVYYCARCLYDGLYFYAMDYWGQGTSVTVSS VL: DIVMSQSPSSLAVSAGEKVTMTCKSSQSLLNSRARKNYLAWYQQKAGQSPKLLMYWASTRESGVPDRFTASGSGTDFTLTISSVQAEDLAVFYCKQSYNLPWTFGGGTKLEIKR
